The text below walks through data of patent US20220251176A1 (GREEN CROSS, published 2022).

To fix the notation:
B2: recombinant human CD3 (receptor)
chain: DGNEEMGGITQTPYKVSISGTTVILTCPQYPGSEILWQHNDKNIGGDEDDKNIGSDEDHLSLKEFSELEQSGYYVCYPRGSKPEDANFYLYLRARVCENCMEMD

In test [1] the target is T1, MSLN on H226 and AsPC-1 cancer cell lines (UniProt Q13421 296-598). The experiment in a line: cell-based or functional assay.
Test [2] addresses T2, recombinant human MSLN (human, UniProt Q13421 296-580, limits assumed).
T2 construct: Immobilised on an APS sensor in the Octet assay; also called mesothelin
The experiment in a line: BLI (Octet), antigen immobilised on APS sensor, antibody 6.25-100 nM. Background: BLI is a label-free optical method that tracks binding on a fibre tip over time.

Test [3] concerns the target B2. The test is described as above.
Test [4] addresses T3, CD3 on Jurkat E6-1 T cell line (UniProt P07766 23-207).
T3 construct: whole, on cells; On the cells CD3 is the whole complex
The experiment in a line: flow cytometry on Jurkat E6-1 cells (express CD3), PE anti-human IgG. Background: Flow cytometry measures light scatter and fluorescence of single cells or particles in a stream.
Method: (§1) Then, light was blocked for one and a half hours and incubation was performed at 4° C. Subsequently, 200 μl of FACS buffer was added thereto. Centrifugation was performed at 2,000 rpm for 3 minutes at 4° C., and then the supernatant was removed.
(§2) Then, light was blocked for 30 minutes and incubation was performed at 4° C. Subsequently, 200 μl of FACS buffer was added thereto, and centrifugation was performed at 2,000 rpm for 3 minutes at 4° C.; and then the supernatant was removed to obtain a sample.
(§3) 200 μl of BD CYTOFIX™ was added to the sample so that the cells were suspended, and analysis was performed by BD LSR FORTESSA™.

In test [5] the target is T1, MSLN on H226 and AsPC-1 cancer cell …. The experiment in a line: flow cytometry on H226 cells (overexpress MSLN and EGFR), PE anti-human IgG.
Method: as §1, §2, §3
The target is the same in test [6]. The experiment in a line: flow cytometry on AsPC-1 cells (overexpress MSLN and EGFR), PE anti-human IgG.
Method: as §1, §2, §3
In test [7] the target is T4, anti-EGFR/anti-MSLN/anti-CD3 trispecific antibody Cetuximab/HMI323-A15.
T4 construct: Trispecific antibody: knob-into-hole heterodimer of two single chains, 2+1 IgG format
The experiment in a line: BLI (Octet), antigen immobilised on APS sensor, antibody 6.25-100 nM.

T1 sequence (Q13421 other isoform, or with tags, fused parts or gaps limits assumed): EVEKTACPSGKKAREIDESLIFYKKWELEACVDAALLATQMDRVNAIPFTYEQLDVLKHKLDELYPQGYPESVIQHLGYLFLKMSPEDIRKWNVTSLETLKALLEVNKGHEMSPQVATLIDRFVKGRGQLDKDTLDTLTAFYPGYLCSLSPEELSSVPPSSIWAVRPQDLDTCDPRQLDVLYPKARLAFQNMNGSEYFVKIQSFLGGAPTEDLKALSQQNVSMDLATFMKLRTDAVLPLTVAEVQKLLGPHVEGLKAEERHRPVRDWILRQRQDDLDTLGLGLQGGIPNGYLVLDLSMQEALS
T2 sequence (Q13421 other isoform, or with tags, fused parts or gaps limits assumed): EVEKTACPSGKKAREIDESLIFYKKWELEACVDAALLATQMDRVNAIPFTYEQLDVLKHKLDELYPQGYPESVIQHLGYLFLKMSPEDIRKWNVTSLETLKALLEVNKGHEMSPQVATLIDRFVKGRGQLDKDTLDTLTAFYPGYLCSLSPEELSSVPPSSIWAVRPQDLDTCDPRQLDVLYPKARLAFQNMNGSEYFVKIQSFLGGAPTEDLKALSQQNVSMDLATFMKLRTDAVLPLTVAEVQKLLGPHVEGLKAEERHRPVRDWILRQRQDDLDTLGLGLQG

B1: anti-MSLN/anti-CD3 bispecific antibody HMI323/HMI323-A15 (bispecific antibody, human IgG1, kappa, lambda, L234A L235A)
chain 1: DIQMTQSPSSLSASVGDRVTITCRASQDVSTAVAWYQQKPGKAPKLLIYSASYRYPGVPSRFSGSGSGTDFTLTISSLQPEDFATYYCQQHYSTPWTFGGGTKLEIKRTVAAPSVFIFPPSDEQLKSGTASVVCLLNNFYPREAKVQWKVDNALQSGNSQESVTEQDSKDSTYSLSSTLTLSKADYEKHKVYACEVTHQGLSSPVTKSFNRGECSGGGSGGGSEGGGSEGGGSEGGGSEGGGSGGGSGEVQLVQSGAEVKKPGTSVKVSCKASGYSFTSYFIQWVRQAPGQGLEWIGWIFPGSGNTKYSQKFQGRVTITRDTSTSTAYMELSSLRSEDTAVYYCARSGGYQYYFDYWGQGTLVTVSSASTKGPSVFPLAPSSKSTSGGTAALGCLVKDYFPEPVTVSWNSGALTSGVHTFPAVLQSSGLYSLSSVVTVPSSSLGTQTYICNVNHKPSNTKVDKKVGGGGSGGGGSGGGGSQAVVTQEPSLTVSPGGTVTLTCRSSTGAVTTSNYANWVQQKPGQAPRGLIGGTNKRAPWTPARFSGSLLGGKAALTLSGAQPEDEAEYYCALWYSNLWVFGGGTKLTVLGQPKANPTVTLFPPSSEELQANKATLVCLISDFYPGAVTVAWKADGSPVKAGVETTKPSKQSNNKYAASSYLSLTPEQWKSHRSYSCQVTHEGSTVEKTVAPTECSGGGSGGGSEGGGSEGGGSEGGGSEGGGSGGGSGEVQLVESGGGLVQPGGSLKLSCAASGFTFNTYAMNWVRQASGKGLEWVGRIRSKYNNYATYYADSVKDRFTISRDDSKNTAYLQMNSLKTEDTAVYYCVRHGNFGNSYVSWFAYWGQGTLVTVSSASTKGPSVFPLAPSSKSTSGGTAALGCLVKDYFPEPVTVSWNSGALTSGVHTFPAVLQSSGLYSLSSVVTVPSSSLGTQTYICNVNHKPSNTKVDKKVEPKSCDKTHTCPPCPAPEAAGGPSVFLFPPKPKDTLMISRTPEVTCVVVDVSHEDPEVKFNWYVDGVEVHNAKTKPREEQYNSTYRVVSVLTVLHQDWLNGKEYKCKVSNKALPAPIEKTISKAKGQPREPRVYTLPPCRDELTKNQVSLTCLVKGFYPSDIAVEWESNGQPENNYKTTPPVLVSDGSFTLYSKLTVDKSRWQQGNVFSCSVMHEALHNHYTQKSLSLSPG
chain 2: DIQMTQSPSSLSASVGDRVTITCRASQDVSTAVAWYQQKPGKAPKLLIYSASYRYPGVPSRFSGSGSGTDFTLTISSLQPEDFATYYCQQHYSTPWTFGGGTKLEIKRTVAAPSVFIFPPSDEQLKSGTASVVCLLNNFYPREAKVQWKVDNALQSGNSQESVTEQDSKDSTYSLSSTLTLSKADYEKHKVYACEVTHQGLSSPVTKSFNRGECSGGGSGGGSEGGGSEGGGSEGGGSEGGGSGGGSGEVQLVQSGAEVKKPGTSVKVSCKASGYSFTSYFIQWVRQAPGQGLEWIGWIFPGSGNTKYSQKFQGRVTITRDTSTSTAYMELSSLRSEDTAVYYCARSGGYQYYFDYWGQGTLVTVSSASTKGPSVFPLAPSSKSTSGGTAALGCLVKDYFPEPVTVSWNSGALTSGVHTFPAVLQSSGLYSLSSVVTVPSSSLGTQTYICNVNHKPSNTKVDKKVEPKSCDKTHTCPPCPAPEAAGGPSVFLFPPKPKDTLMISRTPEVTCVVVDVSHEDPEVKFNWYVDGVEVHNAKTKPREEQYNSTYRVVSVLTVLHQDWLNGKEYKCKVSNKALPAPIEKTISKAKGQPREPQVCTLPPSRDELTENQVSLTCLVKGFYPSDIAVEWESNGQPENNYKTTPPVLDSDGSFFLYSWLTVDKSRWQQGNVFSCSVMHEALHNHYTQKSLSLSPG
notes: Knob-into-hole heterodimer of two single chains, 2+1 IgG format
Broadly, the Kd is a measure of binding affinity in units of concentration. As a reminder, the koff is the first-order rate constant of dissociation. As usually defined, the kon is the rate constant with which the complex forms. In general, EC50 refers to the concentration that produces a half-maximal response. A lower EC50 goes with a more potent agent. With B1, in test [1], the “IC50 of PBMC-mediated cell killing; AsPC-1; PBMC:target cell 10:1; 24 hr” value came out at 406 pM, the “IC50 of PBMC-mediated cell killing; AsPC-1; PBMC:target cell 10:1; 48 hr” value came out at 144 pM, the “IC50 of PBMC-mediated cell killing; AsPC-1; PBMC:target cell 20:1; 48 hr” value is 30.4 pM and the “IC50 of PBMC-mediated cell killing; H226; PBMC:target cell 10:1; 24 hr” value was determined as 84.4 pM. In addition, in test [1], the “IC50 of PBMC-mediated cell killing; H226; PBMC:target cell 10:1; 48 hr” value is 50.3 pM and the “IC50 of PBMC-mediated cell killing; H226; PBMC:target cell 20:1; 48 hr” value was determined as 15.3 pM. Moreover, in test [2], the Kd came to 7.79 nM, the koff is 0.000774 s⁻¹ and the on-rate constant (kon) worked out at 99400 M⁻¹ s⁻¹. For the same molecule, in test [3], the dissociation constant (Kd) worked out at 52.6 nM, the koff came out at 0.0242 s⁻¹ and the kon was found to be 461000 M⁻¹ s⁻¹. In test [4], this molecule returned a concentration for a half-maximal effect (EC50) of 58 nM. Besides, in test [5], the EC50 was determined as 6.2 nM. The molecule further registered a 50% effective concentration (EC50) in test [6] of 4.7 nM.

In test [7], B2 had a Kd of 13.5 nM, a koff of 0.00625 s⁻¹ and a kon of 463000 M⁻¹ s⁻¹.
